No end group written: not given here. *: point of attachment. Biotin = O=C1N[C@H]2[C@H](CS[C@H]2CCCCC(=O)*)N1
T1: peptide 16 (12 mer from the 2nd extracellular loop of human C5aR) (human)
T1 construct: worked out from 22 12 mers offset by one over 173-205; also called peptide no; 16
T1 peptide: Biotin-SGSGCGVDYSHDKRRE

T2: peptide 9 (12 mer from the 2nd extracellular loop of human C5aR) (human)
T2 construct: worked out from 22 12 mers offset by one over 173-205; also called peptide no
T2 peptide: Biotin-SGSGYFPPKVLCGVDY

T3: peptide 19 (12 mer from the 2nd extracellular loop of human C5aR) (human)
T3 construct: worked out from 22 12 mers offset by one over 173-205; also called peptide no; 19
T3 peptide: Biotin-SGSGDYSHDKRRERAV

T4: peptide 13 (12 mer from the 2nd extracellular loop of human C5aR) (human)
T4 construct: worked out from 22 12 mers offset by one over 173-205; also called peptide no; 13
T4 peptide: Biotin-SGSGKVLCGVDYSHDK

T5: peptide 8 (12 mer from the 2nd extracellular loop of human C5aR) (human)
T5 construct: worked out from 22 12 mers offset by one over 173-205; also called peptide no
T5 peptide: Biotin-SGSGEYFPPKVLCGVD

T6: peptide 10 (12 mer from the 2nd extracellular loop of human C5aR) (human)
T6 construct: worked out from 22 12 mers offset by one over 173-205; also called peptide no; 10
T6 peptide: Biotin-SGSGFPPKVLCGVDYS

T7: peptide 20 (12 mer from the 2nd extracellular loop of human C5aR) (human)
T7 construct: worked out from 22 12 mers offset by one over 173-205; also called peptide no; 20
T7 peptide: Biotin-SGSGYSHDKRRERAVA

T8: peptide 17 (12 mer from the 2nd extracellular loop of human C5aR) (human)
T8 construct: worked out from 22 12 mers offset by one over 173-205; also called peptide no; 17
T8 peptide: Biotin-SGSGGVDYSHDKRRER

T9: peptide 21 (12 mer from the 2nd extracellular loop of human C5aR) (human)
T9 construct: worked out from 22 12 mers offset by one over 173-205; also called peptide no; 21
T9 peptide: Biotin-SGSGSHDKRRERAVAI

T10: peptide PEP1 (residues 9-29 of human C5aR) (human)
T10 construct: Coated directly on a MaxiSorp plate; also called N-terminal 9-29 peptide
T10 peptide: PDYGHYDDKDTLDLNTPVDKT


Tests used:
[1] = molecular target: T1, peptide 16 (12 mer from the 2nd …); test: peptide ELISA, biotin peptide on streptavidin plate
Source text: (§1) A set of 22 overlapping peptides (12 mers), each offset by 1 residue from the next, spanning the second extracellular loop (3rd extracellular domain) of human C5aR was synthesised (Mimotopes, Melbourne). Each peptide was made with a biotin group and 4-amino acid linker (SGSG) at its N-terminus. One peptide synthesised, no. 23, was a 33 mer, representing the full length of the 2nd extracellular loop of hC5aR (residues 173-205 from SEQ ID NO:37), also had biotin-SGSG at the N-terminus.
(§2) The experiment was conducted by binding the peptides to a 384-well streptavidin-coated plate then incubating the antibodies with the peptides and detecting bound antibody with an anti-mouse IgG conjugated to horse radish peroxidase (HRP) as follows. Each peptide was dissolved in 200 μl of 60% DMSO to a concentration of 10 mg/ml. Peptides were further diluted 1:1000 to a working strength of 10 μg/ml with PBS/Tween 20/azide solution (0.1% w/v sodium azide in PBS/0.05% Tween 20).
(§3) A 384 well streptavidin-coated plate (Nunc) was blocked with 20 μl of blocking buffer (1% w/v BSA in PBS) per well. The plate was washed 4 times with PBS/Tween20 buffer (0.1% v/v Tween 20 in PBS). 20 μl of diluted peptide solution was transferred into a well and the plate incubated for 1 hour at room temperature. After washing the plate 4 times (as above) 20 μl antibody (0.5, 1, 1.25, 2.5 or 5 μg/ml) was added to the well and the plate was incubated for 1 hour at 20° C. The plate was washed 4 times as above then 20 μlHRP-conjugated anti-mouse IgG (1:5000 dilution in PBS/Tween 20) was added to each well. After a 1 hour incubation at room temperature the plate was washed 3 times (as above) then twice with PBS to remove traces of Tween. The presence of peroxidase was detected by adding 20 μl of freshly prepared TMB Substrate reagent (BD Opt EIA) to each well and incubating at room temperature for 20 min. Finally the plate was read at 650 nm/450 nm.

[2] = molecular target: T2, peptide 9 (12 mer from the 2nd …); test: as above
Source text: as §1, §2, §3

[3] = molecular target: T3, peptide 19 (12 mer from the 2nd …); test: as above
Source text: as §1, §2, §3

[4] = molecular target: T4, peptide 13 (12 mer from the 2nd …); test: as above
Source text: as §1, §2, §3

[5] = molecular target: T5, peptide 8 (12 mer from the 2nd …); test: as above
Source text: as §1, §2, §3

[6] = molecular target: T6, peptide 10 (12 mer from the 2nd …); test: as above
Source text: as §1, §2, §3

[7] = molecular target: T7, peptide 20 (12 mer from the 2nd …); test: as above
Source text: as §1, §2, §3

[8] = molecular target: T8, peptide 17 (12 mer from the 2nd …); test: as above
Source text: as §1, §2, §3

[9] = molecular target: T9, peptide 21 (12 mer from the 2nd …); test: as above
Source text: as §1, §2, §3

[10] = molecular target: T10, peptide PEP1 (residues 9-29 of human …); test: ELISA, PEP1 coated at 10, 2 and 1 µg/ml
Description: A 384-well MaxiSorp plate (Nunc) was coated with a peptide corresponding to residues 9-29 of human C5aR (PEP1), at concentrations of 1-15 μg/ml in PBS/0.01% Tween-20 at 37° C. for 1.5 hours, then washed 3 times. The plate was blocked with 20 μl of blocking buffer (1% w/v BSA in PBS) per well for overnight at 4° C. The plate was washed 3 times with PBS/Tween buffer (0.05% v/v Tween-20 in PBS). 20 μl antibody (final concentration 5 μg/ml) was added to each well and the plate was incubated for 2 hours at 37° C. The plate was washed 3 times as above then 20 μl HRP-conjugated anti-human IgG kappa (1:8000 dilution in PBS/Tween 20) or HRP-conjugated anti-mouse IgG (1:7500 dilution) was added to each well. After a 2 hour incubation at room temperature the plate was washed 4 times (as above). The presence of peroxidase was detected by adding 20 μl of freshly prepared TMB Substrate reagent (BD Opt EIA) to each well and incubating at room temperature for 20 min. Finally after stopping the reaction with 20 μl 1M H₂SO₄ per well the plate was read at 450 nm (reference 620 nm) in a plate reader.
However, the anti-C5aR (CD88) mAb S5/1 (AbD Serotec, Cat No. MCA1283) which was raised against the human C5aR N-terminal peptide 1-31 did bind PEP1 at 5 μg/ml as expected.

Row | Binder | binding result [1] | binding result [2] | binding result [3] | binding result [4] | binding result [5] | binding result [6] | binding result [7] | binding result [8] | binding result [9] | binding result [10]
1 | mouse anti-C5aR monoclonal antibody 7F3 (antibody, V domains shown, Mouse monoclonal from hybridoma ECACC 00110609; also called m7F3; mouse 7F3) VH: QVQLQQSGPELVKPGASVKISCKASGYAFSNSWMNWVKQRPGKGLEWIGRIYPGDGDTKYNGKFKGKATLTADKSSSTAYMQLSSLTSEDSAVYFCARFLLISTVTAVDYWGQGTTLTVSS VL: DVVMTQSPLSLPVSLGNQASISCRSSQSLVHSNGNTYLHWYLQKPGQSPKLLIYKVSNRFSGVPDRFSGSGSGTDFSLKISRVEAEDLGVYFCSQSTLVPLTFGAGTKLELK | no binding | no binding | no binding | no binding | no binding | no binding | no binding | no binding | no binding | 
2 | humanized anti-C5aR antibody hAb-J (antibody, human IgG4 S228P, kappa, also called antibody J) light: DVVMTQSPLSLPVTLGEPASISCRSSQSLVHSNGNTYLHWYLQKPGQSPQLLIYKVSNRFSGVPDRFSGSGSGTDFTLKISRVEAEDVGVYFCSQSTLVPLTFGQGTKLEIKTVAAPSVFIFPPSDEQLKSGTASVVCLLNNFYPREAKVQWKVDNALQSGNSQESVTEQDSKDSTYSLSSTLTLSKADYEKHKVYACEVTHQGLSSPVTKSFNRGEC heavy: not shown | no binding | no binding | no binding | no binding | no binding | no binding | no binding | no binding | no binding | no binding (tested: 5 µg/ml)
3 | humanized anti-C5aR antibody hAb-Q (antibody, human IgG4 S228P, kappa, IgG4 with the Ser228Pro mutation; also called antibody Q; anti-C5aR ab) light: DVVMTQSPLSLPVTLGEPASISCRSSQSLVHSNGNTYLHWYLQKPGQSPQLLIYKVSNRFSGVPDRFSGSGSGTDFTLKISRVEAEDVGVYFCSQSTLVPLTFGQGTKLEIKRTVAAPSVFIFPPSDEQLKSGTASVVCLLNNFYPREAKVQWKVDNALQSGNSQESVTEQDSKDSTYSLSSTLTLSKADYEKHKVYACEVTHQGLSSPVTKSFNRGEC heavy: not shown | no binding | no binding | no binding | no binding | no binding | no binding | no binding | no binding | no binding | no binding (tested: 5 µg/ml)

From patent US20110190477A1 (G2 INFLAMMATION, published 2011)
